Source: patent US6869925 (Amgen, dated 2005)

Target: SLPI binding sites on HuT78 cells (human T cell line) (human)
Assay: competition with 125I-SLPI, intact HuT78 cells, competitor at 8.2 nM

Sequence of SLPI mutein Val 72 (P03973 other isoform, or with tags, fused parts or gaps mutant): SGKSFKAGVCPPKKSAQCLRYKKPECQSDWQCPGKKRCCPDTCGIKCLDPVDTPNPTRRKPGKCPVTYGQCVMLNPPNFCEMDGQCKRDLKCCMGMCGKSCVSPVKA
Sequence of SLPI mutein Gly 72 (P03973 other isoform, or with tags, fused parts or gaps mutant): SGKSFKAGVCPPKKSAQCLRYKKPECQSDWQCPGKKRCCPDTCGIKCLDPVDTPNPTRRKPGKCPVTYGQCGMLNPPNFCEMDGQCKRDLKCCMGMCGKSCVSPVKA

% *SLPI BOUND [%] | Substance
85 | SLPI mutein Gly 72 (from UniProt P03973 26-132)
81 | SLPI mutein Val 72 (from UniProt P03973 26-132)

Target: SLPI binding sites on U937 cells (human monocyte cell line; intact cells, PMA-induced cells or plasma membranes) (human)
Assay: competition with 125I-SLPI, intact U937 cells, Kd by Cheng-Prusoff

Kd [nM] | Substance
400 | SLPI mutein Gly 72 (from UniProt P03973 26-132)
30 | SLPI mutein Val 72 (from UniProt P03973 26-132)

Target: SLPI binding sites on U937 cells (human monocyte cell line; intact cells, PMA-induced cells or plasma membranes) (human)
Assay: competition with 125I-SLPI, U937 plasma membranes, Kd by Cheng-Prusoff

Kd [nM] | Substance
5 | SLPI mutein Gly 72 (from UniProt P03973 26-132)
19 | SLPI mutein Val 72 (from UniProt P03973 26-132)

Substance | Kd [nM]
HIV-1 envelope protein gp120 | 400

Target: SLPI binding sites on U937 cells (human monocyte cell line; intact cells, PMA-induced cells or plasma membranes) (human)
Assay: competition with 125I-SLPI, U937 plasma membranes, competitor at 0.800 nM (second GLY72 row)

CPM *SLPI BOUND [cpm] | Substance
14000 | SLPI mutein Gly 72 (from UniProt P03973 26-132)

Target: SLPI binding sites on HuT78 cells (human T cell line) (human)
Assay: competition with 125I-SLPI, intact HuT78 cells, competitor at 84 nM

% *SLPI BOUND [%] | Substance
110 | SLPI mutein Gly 72 (from UniProt P03973 26-132)
43 | SLPI mutein Val 72 (from UniProt P03973 26-132)

Target: SLPI binding sites on U937 cells (human monocyte cell line; intact cells, PMA-induced cells or plasma membranes) (human)
Assay: competition with 125I-SLPI, intact U937 cells, competitor at 2.6 nM

% *SLPI BOUND [%] | Substance
115 | SLPI mutein Gly 72 (from UniProt P03973 26-132)
80 | SLPI mutein Val 72 (from UniProt P03973 26-132)

Target: SLPI binding sites on U937 cells (human monocyte cell line; intact cells, PMA-induced cells or plasma membranes) (human)
Assay: competition with 125I-SLPI, intact U937 cells, competitor at 84 nM

% *SLPI BOUND [%] | Substance
101 | SLPI mutein Gly 72 (from UniProt P03973 26-132)
48 | SLPI mutein Val 72 (from UniProt P03973 26-132)

Target: SLPI binding sites on U937 cells (human monocyte cell line; intact cells, PMA-induced cells or plasma membranes) (human)
Assay: competition with 125I-SLPI, U937 plasma membranes, competitor at 2750 nM

CPM *SLPI BOUND [cpm] | Substance
1780 | SLPI mutein Gly 72 (from UniProt P03973 26-132)
923 | SLPI mutein Val 72 (from UniProt P03973 26-132)

Target: SLPI binding sites on U937 cells (human monocyte cell line; intact cells, PMA-induced cells or plasma membranes) (human)
Assay: competition with 125I-SLPI, intact U937 cells, competitor at 0.078 nM

% *SLPI BOUND [%] | Substance
118 | SLPI mutein Gly 72 (from UniProt P03973 26-132)

Target: SLPI binding sites on U937 cells (human monocyte cell line; intact cells, PMA-induced cells or plasma membranes) (human)
Assay: competition with 125I-SLPI, U937 plasma membranes, competitor at 2.56 nM (second GLY72 row)

CPM *SLPI BOUND [cpm] | Substance
11300 | SLPI mutein Gly 72 (from UniProt P03973 26-132)

Target: SLPI binding sites on U937 cells (human monocyte cell line; intact cells, PMA-induced cells or plasma membranes) (human)
Assay: competition with 125I-SLPI, U937 plasma membranes, competitor at 8.20 nM (second GLY72 row)

CPM *SLPI BOUND [cpm] | Substance
7300 | SLPI mutein Gly 72 (from UniProt P03973 26-132)

Target: SLPI binding sites on U937 cells (human monocyte cell line; intact cells, PMA-induced cells or plasma membranes) (human)
Assay: competition with 125I-SLPI, intact U937 cells, competitor at 8.2 nM

% *SLPI BOUND [%] | Substance
117 | SLPI mutein Gly 72 (from UniProt P03973 26-132)
78 | SLPI mutein Val 72 (from UniProt P03973 26-132)

Target: SLPI binding sites on U937 cells (human monocyte cell line; intact cells, PMA-induced cells or plasma membranes) (human)
Assay: competition with 125I-SLPI, U937 plasma membranes, competitor at 0 nM (second GLY72 row)

CPM *SLPI BOUND [cpm] | Substance
18700 | SLPI mutein Gly 72 (from UniProt P03973 26-132)

Target: SLPI binding sites on U937 cells (human monocyte cell line; intact cells, PMA-induced cells or plasma membranes) (human)
Assay: competition with 125I-SLPI, intact U937 cells, competitor at 0.80 nM

% *SLPI BOUND [%] | Substance
116 | SLPI mutein Gly 72 (from UniProt P03973 26-132)
90 | SLPI mutein Val 72 (from UniProt P03973 26-132)

Target: SLPI binding sites on HuT78 cells (human T cell line) (human)
Assay: competition with 125I-SLPI, intact HuT78 cells, competitor at 0.80 nM

% *SLPI BOUND [%] | Substance
108 | SLPI mutein Gly 72 (from UniProt P03973 26-132)
93 | SLPI mutein Val 72 (from UniProt P03973 26-132)

Target: SLPI binding sites on U937 cells (human monocyte cell line; intact cells, PMA-induced cells or plasma membranes) (human)
Assay: competition with 125I-SLPI, U937 plasma membranes, competitor at 268 nM (second GLY72 row)

CPM *SLPI BOUND [cpm] | Substance
2530 | SLPI mutein Gly 72 (from UniProt P03973 26-132)

Target: SLPI binding sites on HuT78 cells (human T cell line) (human)
Assay: competition with 125I-SLPI, intact HuT78 cells, Kd by Cheng-Prusoff

Kd [nM] | Substance
200 | SLPI mutein Gly 72 (from UniProt P03973 26-132)
9 | SLPI mutein Val 72 (from UniProt P03973 26-132)

Target: SLPI binding sites on U937 cells (human monocyte cell line; intact cells, PMA-induced cells or plasma membranes) (human)
Assay: competition with 125I-SLPI, U937 plasma membranes, competitor at 83.9 nM

CPM *SLPI BOUND [cpm] | Substance
3710 | SLPI mutein Gly 72 (from UniProt P03973 26-132)
3380 | SLPI mutein Val 72 (from UniProt P03973 26-132)

Target: SLPI binding sites on U937 cells (human monocyte cell line; intact cells, PMA-induced cells or plasma membranes) (human)
Assay: competition with 125I-SLPI, U937 plasma membranes, competitor at 83.9 nM (second GLY72 row)

CPM *SLPI BOUND [cpm] | Substance
3940 | SLPI mutein Gly 72 (from UniProt P03973 26-132)

Target: SLPI binding sites on U937 cells (human monocyte cell line; intact cells, PMA-induced cells or plasma membranes) (human)
Assay: competition with 125I-SLPI, U937 plasma membranes, competitor at 268 nM

CPM *SLPI BOUND [cpm] | Substance
2840 | SLPI mutein Gly 72 (from UniProt P03973 26-132)
1740 | SLPI mutein Val 72 (from UniProt P03973 26-132)

Target: SLPI binding sites on U937 cells (human monocyte cell line; intact cells, PMA-induced cells or plasma membranes) (human)
Assay: competition with 125I-SLPI, U937 plasma membranes, competitor at 0.800 nM

CPM *SLPI BOUND [cpm] | Substance
14700 | SLPI mutein Gly 72 (from UniProt P03973 26-132)
14000 | SLPI mutein Val 72 (from UniProt P03973 26-132)

Target: SLPI binding sites on U937 cells (human monocyte cell line; intact cells, PMA-induced cells or plasma membranes) (human)
Assay: competition with 125I-SLPI, intact U937 cells, competitor at 2750 nM

% *SLPI BOUND [%] | Substance
28 | SLPI mutein Gly 72 (from UniProt P03973 26-132)
8 | SLPI mutein Val 72 (from UniProt P03973 26-132)

Target: SLPI binding sites on U937 cells (human monocyte cell line; intact cells, PMA-induced cells or plasma membranes) (human)
Assay: competition with 125I-SLPI, U937 plasma membranes, competitor at 2750 nM (second GLY72 row)

CPM *SLPI BOUND [cpm] | Substance
1430 | SLPI mutein Gly 72 (from UniProt P03973 26-132)

Target: SLPI binding sites on U937 cells (human monocyte cell line; intact cells, PMA-induced cells or plasma membranes) (human)
Assay: competition with 125I-SLPI, intact U937 cells, competitor at 0 nM

% *SLPI BOUND [%] | Substance
131 | SLPI mutein Gly 72 (from UniProt P03973 26-132)
95 | SLPI mutein Val 72 (from UniProt P03973 26-132)

Target: SLPI binding sites on U937 cells (human monocyte cell line; intact cells, PMA-induced cells or plasma membranes) (human)
Assay: competition with 125I-SLPI, intact U937 cells, competitor at 270 nM

% *SLPI BOUND [%] | Substance
75 | SLPI mutein Gly 72 (from UniProt P03973 26-132)

Target: SLPI binding sites on U937 cells (human monocyte cell line; intact cells, PMA-induced cells or plasma membranes) (human)
Assay: competition with 125I-SLPI, intact U937 cells, competitor at 0.25 nM

% *SLPI BOUND [%] | Substance
120 | SLPI mutein Gly 72 (from UniProt P03973 26-132)

Target: SLPI binding sites on U937 cells (human monocyte cell line; intact cells, PMA-induced cells or plasma membranes) (human)
Assay: competition with 125I-SLPI, intact U937 cells, competitor at 0.024 nM

% *SLPI BOUND [%] | Substance
116 | SLPI mutein Gly 72 (from UniProt P03973 26-132)

Target: SLPI binding sites on HuT78 cells (human T cell line) (human)
Assay: competition with 125I-SLPI, intact HuT78 cells, competitor at 2750 nM

% *SLPI BOUND [%] | Substance
28 | SLPI mutein Gly 72 (from UniProt P03973 26-132)
14 | SLPI mutein Val 72 (from UniProt P03973 26-132)

Target: SLPI binding sites on U937 cells (human monocyte cell line; intact cells, PMA-induced cells or plasma membranes) (human)
Assay: competition with 125I-SLPI, intact U937 cells, competitor at 26 nM

% *SLPI BOUND [%] | Substance
112 | SLPI mutein Gly 72 (from UniProt P03973 26-132)

Target: SLPI binding sites on U937 cells (human monocyte cell line; intact cells, PMA-induced cells or plasma membranes) (human)
Assay: competition with 125I-SLPI, U937 plasma membranes, competitor at 8.20 nM

CPM *SLPI BOUND [cpm] | Substance
7210 | SLPI mutein Gly 72 (from UniProt P03973 26-132)
9240 | SLPI mutein Val 72 (from UniProt P03973 26-132)

Target: SLPI binding sites on U937 cells (human monocyte cell line; intact cells, PMA-induced cells or plasma membranes) (human)
Assay: competition with 125I-SLPI, U937 plasma membranes, competitor at 0 nM

CPM *SLPI BOUND [cpm] | Substance
18700 | SLPI mutein Gly 72 (from UniProt P03973 26-132)
18700 | SLPI mutein Val 72 (from UniProt P03973 26-132)

Target: SLPI binding sites on HuT78 cells (human T cell line) (human)
Assay: competition with 125I-SLPI, intact HuT78 cells, competitor at 2.6 nM

% *SLPI BOUND [%] | Substance
105 | SLPI mutein Gly 72 (from UniProt P03973 26-132)
96 | SLPI mutein Val 72 (from UniProt P03973 26-132)

Target: SLPI binding sites on HuT78 cells (human T cell line) (human)
Assay: competition with 125I-SLPI, intact HuT78 cells, competitor at 0 nM

% *SLPI BOUND [%] | Substance
100 | SLPI mutein Gly 72 (from UniProt P03973 26-132)
100 | SLPI mutein Val 72 (from UniProt P03973 26-132)

Target: SLPI binding sites on U937 cells (human monocyte cell line; intact cells, PMA-induced cells or plasma membranes) (human)
Assay: competition with 125I-SLPI, intact U937 cells, competitor at 860 nM

% *SLPI BOUND [%] | Substance
53 | SLPI mutein Gly 72 (from UniProt P03973 26-132)

Target: SLPI binding sites on U937 cells (human monocyte cell line; intact cells, PMA-induced cells or plasma membranes) (human)
Assay: competition with 125I-SLPI, U937 plasma membranes, competitor at 2.56 nM

CPM *SLPI BOUND [cpm] | Substance
12000 | SLPI mutein Gly 72 (from UniProt P03973 26-132)
11600 | SLPI mutein Val 72 (from UniProt P03973 26-132)
